According to paper PMC10864275, “Binding kinetics drive G protein subtype selectivity at the β1-adrenergic receptor” (Nature Communications, 2024):
Where “and” joins values, the source holds several entries; their conditions need not be identical. Equal values may be shown once. Each block holds one binder with its values, some of them ahead of it.

What was measured:
[1] = target: avi-β1AR-E (turkey β1-adrenergic receptor, minimally thermostabilised construct with E130 restored, N-terminal biotinylated avi-tag) (turkey), P07700; experiment: BLI; biotinylated avi-tagged receptor in LMNG immobilised on streptavidin biosensors; 500 μM isoprenaline; mini-G in solution at a single concentration (0.125-4 μM); 20 mM TrisHCl pH 8.0, 150 mM NaCl, 15 mM MgCl2, 0.02% LMNG, 0.1% BSA; 25 °C; 1:1 monophasic local partial fit; one of n = 3 tips
[2] = target: avi-β1AR-W (turkey β1-adrenergic receptor β1AR-MetΔ5, thermostabilised with E130W, N-terminal biotinylated avi-tag) (turkey), P07700; experiment: as above
[3] = target: avi-β1AR-E (turkey β1-adrenergic receptor, β1AR-E construct with N-terminal biotinylated avi-tag) (turkey), P07700; experiment: BLI; biotinylated avi-β1AR in LMNG on streptavidin biosensors, mini-G in solution; 500 μM isoprenaline; 20 mM TrisHCl pH 8.0, 150 mM NaCl, 15 mM MgCl2, 0.02% LMNG, 0.1% BSA; 25 °C; single point measurements, monophasic 1:1 local fit, n = 3
Chain of avi-β1AR-E (turkey β1-adrenergic receptor, β1AR-E construct with N-terminal biotinylated avi-tag) (turkey), P07700 (P07700 other isoform, or with tags, fused parts or gaps): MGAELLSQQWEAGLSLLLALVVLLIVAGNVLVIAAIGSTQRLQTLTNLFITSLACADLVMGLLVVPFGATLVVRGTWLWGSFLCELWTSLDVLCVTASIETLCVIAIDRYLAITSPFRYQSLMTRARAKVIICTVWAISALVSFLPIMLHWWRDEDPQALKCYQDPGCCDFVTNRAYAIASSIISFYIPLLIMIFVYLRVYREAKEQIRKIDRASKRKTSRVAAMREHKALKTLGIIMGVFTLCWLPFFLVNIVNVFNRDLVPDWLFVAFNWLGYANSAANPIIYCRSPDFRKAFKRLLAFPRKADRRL

Chain of avi-β1AR-E (turkey β1-adrenergic receptor, minimally thermostabilised construct with E130 restored, N-terminal biotinylated avi-tag) (turkey), P07700 (P07700 other isoform, or with tags, fused parts or gaps): as above
Chain of avi-β1AR-W (turkey β1-adrenergic receptor β1AR-MetΔ5, thermostabilised with E130W, N-terminal biotinylated avi-tag) (turkey), P07700 (P07700 other isoform, or with tags, fused parts or gaps E130W): as the sequence (P07700 other isoform, or with tags, fused parts or gaps) above, with E100W counted along it

- Kd [1]: 1.43 µM and 1.12 µM and 1.46 µM
- koff [1]: 0.0042 s⁻¹ and 0.00358 s⁻¹ and 0.00401 s⁻¹
- kon [1]: 2950 M⁻¹ s⁻¹ and 3200 M⁻¹ s⁻¹ and 2740 M⁻¹ s⁻¹
- Kd [2]: 8.71 µM and 8.11 µM and 5.42 µM
- koff [2]: 0.0102 s⁻¹ and 0.00894 s⁻¹ and 0.00914 s⁻¹
- kon [2]: 1170 M⁻¹ s⁻¹ and 1100 M⁻¹ s⁻¹ and 1690 M⁻¹ s⁻¹
- Kd [3]: 1.34 µM
- fold reduction of kon against mini-Gs [3]: 50 fold
B1: mini-Go1 R12 (domain or fragment)
chain: IEKNLKEDGISAAKDVKLLLLGADNSGKSTIVKQMKIIHTTGIVETHFTFKNLHFRLFDVGGQRSERKKWIHCFEDVTAIIFCVDLSDYNRMHESLMLFDSICNNKFFIDTSIILFLNKKDLFGEKIKKSPLTICFPEYTGPNTYEDAAAYIQAQFESKNRSPNKEIYCHMTCATDTNNAQVIFDAVTDIIIANNLRGCGLY
modifications: not checked

- Kd [3]: 0.047 µM
B2: mini-Gs 393 with C96A (domain or fragment)
chain: GIEKQLQKDKQVYRATHRLLLLGADNSGKSTIVKQMRIYHGGSGGSGGTSGIFETKFQVDKVNFHMFDVGGQRDERRKWIQAFNDVTAIIFVVDSSDYNRLQEALNDFKSIWNNRWLRTISVILFLNKQDLLAEKVLAGKSKIEDYFPEFARYTTPEDATPEPGEDPRVTRAKYFIRDEFLRISTASGDGRHYCYPHFTCAVDTENARRIFNDCRDIIQRMHLRQYELL
modifications: not checked
